Source: patent US20210171647A1

How the values were obtained:
[1] = target: human OX40 extracellular domain (ECD) protein (human) (UniProt P43489); assay: SPR, Biacore T200, antibody captured, OX40 as analyte
[2] = target: human OX40, full-length, on cells (human) (UniProt P43489); assay: flow cytometry, CHO-K1 cells expressing human OX40, MESF beads
[3] = target: human OX40, full-length, on cells (human) (UniProt P43489); assay: flow cytometry on activated human CD4+ T cells
[4] = target: human OX40, full-length, on cells (human) (UniProt P43489); assay: flow cytometry on human OX40 transfected CHO-K1 cells
[5] = target: human OX40, full-length, on cells (human) (UniProt P43489); assay: FACS, transfected 293F cells, antibody 2 ug/mL
[6] = target: human CD40 (hPro40) on transfected 293F cells (human) (UniProt P25942); assay: FACS, transfected 293F cells, antibody 2 ug/mL
[7] = target: mouse OX40 (mPro1) on transfected 293F cells (mouse) (UniProt P47741); assay: FACS, transfected 293F cells, antibody 2 ug/mL
[8] = target: human OX40 extracellular domain (ECD) protein (human) (UniProt P43489); assay: competition ELISA: human OX40 ECD coated, antibody titrated in a mix with a constant concentration of OX40L, bound OX40L detected at OD450
[9] = target: human OX40 extracellular domain (ECD) protein (human) (UniProt P43489); assay: epitope binning by competition against labelled BMK10 on human OX40 (self-competition control); the antibody named in the legend box is titrated; the text describes an ELISA, the axis on the sheet reads MFI
[10] = target: human OX40, full-length, on cells (human) (UniProt P43489); assay: flow cytometry, MFI against antibody concentration; neither the legend nor paragraph 266 names the cells, target taken as cell-surface human OX40 because the antibodies are anti-OX40
[11] = target: xPro1.FL-x7: CRDmox40_3-4 (human; mouse) (UniProt P43489); assay: FACS, transfected 293F cells, antibody 1 ug/mL
[12] = target: xPro1.FL-x8: CRDmox40_1-3 (human; mouse) (UniProt P47741); assay: FACS, transfected 293F cells, antibody 1 ug/mL
[13] = target: xPro1.FL-x6: CRDmox40_2-3 (human; mouse) (UniProt P43489); assay: FACS, transfected 293F cells, antibody 1 ug/mL
[14] = target: xPro1.FL-x5: CRDmox40_1-2 (human; mouse) (UniProt P47741); assay: FACS, transfected 293F cells, antibody 1 ug/mL
[15] = target: xPro1.FL-x1: CRDmox40_1 (human; mouse) (UniProt P47741); assay: FACS, transfected 293F cells, antibody 1 ug/mL
[16] = target: xPro1.FL-x11: CRDmox40_1,3,4 (human; mouse) (UniProt P47741); assay: FACS, transfected 293F cells, antibody 1 ug/mL
[17] = target: xPro1.FL-x9: CRDmox40_2-4 (human; mouse) (UniProt P43489); assay: FACS, transfected 293F cells, antibody 1 ug/mL
[18] = target: xPro1.FL-x10: CRDmox40_1,2,4 (human; mouse) (UniProt P47741); assay: FACS, transfected 293F cells, antibody 1 ug/mL
[19] = target: xPro1.FL-x3: CRDmox40_3 (human; mouse) (UniProt P43489); assay: FACS, transfected 293F cells, antibody 1 ug/mL
[20] = target: xPro1.FL-x4: CRDmox40_4 (human; mouse) (UniProt P43489); assay: FACS, transfected 293F cells, antibody 1 ug/mL
[21] = target: xPro1.FL.x2: CRDmox40_2 (human; mouse) (UniProt P43489); assay: FACS, transfected 293F cells, antibody 1 ug/mL
Sequence of xPro1.FL.x2: CRDmox40_2 (human; mouse) (P43489 other isoform, or with tags, fused parts or gaps, form in doubt): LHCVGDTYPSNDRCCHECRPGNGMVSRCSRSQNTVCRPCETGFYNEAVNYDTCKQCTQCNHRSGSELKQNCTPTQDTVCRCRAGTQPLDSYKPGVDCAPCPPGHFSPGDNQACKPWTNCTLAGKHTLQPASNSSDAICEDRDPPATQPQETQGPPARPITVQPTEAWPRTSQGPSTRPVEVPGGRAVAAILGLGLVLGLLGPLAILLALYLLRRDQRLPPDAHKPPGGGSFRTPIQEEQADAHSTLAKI

Sequence of xPro1.FL-x9: CRDmox40_2-4 (human; mouse) (P43489 other isoform, or with tags, fused parts or gaps, form in doubt): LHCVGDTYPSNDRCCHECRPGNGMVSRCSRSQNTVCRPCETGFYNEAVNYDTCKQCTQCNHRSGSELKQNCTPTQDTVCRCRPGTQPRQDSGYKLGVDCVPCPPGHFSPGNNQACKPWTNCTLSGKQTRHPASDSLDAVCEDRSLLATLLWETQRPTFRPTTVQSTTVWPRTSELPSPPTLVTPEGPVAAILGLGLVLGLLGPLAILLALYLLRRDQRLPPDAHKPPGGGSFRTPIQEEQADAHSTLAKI
Sequence of xPro1.FL-x4: CRDmox40_4 (human; mouse) (P43489 other isoform, or with tags, fused parts or gaps, form in doubt): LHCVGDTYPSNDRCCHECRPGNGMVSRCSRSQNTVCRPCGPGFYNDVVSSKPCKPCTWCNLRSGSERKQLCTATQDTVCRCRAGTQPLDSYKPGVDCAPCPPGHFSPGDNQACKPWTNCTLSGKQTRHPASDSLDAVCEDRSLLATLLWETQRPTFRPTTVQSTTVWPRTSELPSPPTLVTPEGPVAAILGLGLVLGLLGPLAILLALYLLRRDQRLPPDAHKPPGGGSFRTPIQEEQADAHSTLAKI
Sequence of xPro1.FL-x7: CRDmox40_3-4 (human; mouse) (P43489 other isoform, or with tags, fused parts or gaps, form in doubt): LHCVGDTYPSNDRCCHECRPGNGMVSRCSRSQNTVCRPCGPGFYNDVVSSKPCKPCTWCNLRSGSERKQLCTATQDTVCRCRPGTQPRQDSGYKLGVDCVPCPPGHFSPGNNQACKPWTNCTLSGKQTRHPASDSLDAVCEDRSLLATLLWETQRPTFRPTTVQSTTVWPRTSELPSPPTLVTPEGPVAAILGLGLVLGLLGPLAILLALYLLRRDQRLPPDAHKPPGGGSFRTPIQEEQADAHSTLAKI
Sequence of human OX40, full-length, on cells (human) (P43489 29-277): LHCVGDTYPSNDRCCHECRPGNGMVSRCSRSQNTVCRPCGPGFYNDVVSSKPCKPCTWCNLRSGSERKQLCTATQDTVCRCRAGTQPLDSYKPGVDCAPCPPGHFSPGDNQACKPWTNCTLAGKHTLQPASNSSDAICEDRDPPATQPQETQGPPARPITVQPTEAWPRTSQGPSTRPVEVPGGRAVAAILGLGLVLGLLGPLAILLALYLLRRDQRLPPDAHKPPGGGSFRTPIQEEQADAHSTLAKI
Sequence of human OX40 extracellular domain (ECD) protein (human) (P43489 29-214): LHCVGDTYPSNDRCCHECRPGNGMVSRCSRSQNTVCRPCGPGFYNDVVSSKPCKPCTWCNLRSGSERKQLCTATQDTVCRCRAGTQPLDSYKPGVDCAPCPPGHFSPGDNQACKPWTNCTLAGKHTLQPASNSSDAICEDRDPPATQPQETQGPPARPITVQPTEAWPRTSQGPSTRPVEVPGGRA
Sequence of xPro1.FL-x6: CRDmox40_2-3 (human; mouse) (P43489 other isoform, or with tags, fused parts or gaps, form in doubt): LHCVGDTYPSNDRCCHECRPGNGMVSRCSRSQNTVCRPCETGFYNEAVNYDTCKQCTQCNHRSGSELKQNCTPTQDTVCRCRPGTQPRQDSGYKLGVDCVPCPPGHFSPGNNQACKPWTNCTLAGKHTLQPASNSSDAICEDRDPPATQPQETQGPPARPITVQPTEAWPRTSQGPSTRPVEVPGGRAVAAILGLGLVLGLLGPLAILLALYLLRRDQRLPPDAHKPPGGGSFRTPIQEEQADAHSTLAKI
Sequence of xPro1.FL-x3: CRDmox40_3 (human; mouse) (P43489 other isoform, or with tags, fused parts or gaps, form in doubt): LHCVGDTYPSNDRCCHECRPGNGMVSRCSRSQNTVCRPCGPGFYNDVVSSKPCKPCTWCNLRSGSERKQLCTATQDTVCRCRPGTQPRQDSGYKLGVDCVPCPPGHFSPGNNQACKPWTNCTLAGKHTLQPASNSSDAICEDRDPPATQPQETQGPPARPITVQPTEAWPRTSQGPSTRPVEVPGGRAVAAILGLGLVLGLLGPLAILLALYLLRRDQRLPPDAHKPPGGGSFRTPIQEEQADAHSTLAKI
Sequence of mouse OX40 (mPro1) on transfected 293F cells (mouse) (P47741 20-272): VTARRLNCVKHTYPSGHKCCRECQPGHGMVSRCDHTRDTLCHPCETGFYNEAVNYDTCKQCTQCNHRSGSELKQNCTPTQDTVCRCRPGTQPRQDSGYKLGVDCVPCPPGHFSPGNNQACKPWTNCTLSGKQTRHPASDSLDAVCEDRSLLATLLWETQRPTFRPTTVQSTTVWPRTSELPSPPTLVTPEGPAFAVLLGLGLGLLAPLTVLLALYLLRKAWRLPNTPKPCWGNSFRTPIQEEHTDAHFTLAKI
Sequence of human CD40 (hPro40) on transfected 293F cells (human) (P25942 21-277): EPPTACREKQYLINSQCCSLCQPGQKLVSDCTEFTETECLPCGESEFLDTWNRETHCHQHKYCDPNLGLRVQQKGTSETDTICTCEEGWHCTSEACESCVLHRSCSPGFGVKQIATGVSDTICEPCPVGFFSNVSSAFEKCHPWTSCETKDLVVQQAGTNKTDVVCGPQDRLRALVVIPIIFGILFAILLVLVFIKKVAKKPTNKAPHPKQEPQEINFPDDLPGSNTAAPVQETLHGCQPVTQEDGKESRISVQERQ

| MFI [11] | PE + % [11] | MFI [12] | PE + % [12] | MFI [13] | PE + % [13] | MFI [14] | PE + % [14] | MFI [15] | PE + % [15] | MFI [16] | PE + % [16] | MFI [17] | PE + % [17] | MFI [18] | PE + % [18] | MFI [19] | PE + % [19] | MFI [20] | PE + % [20] | Binder | further results |
| --- | --- | --- | --- | --- | --- | --- | --- | --- | --- | --- | --- | --- | --- | --- | --- | --- | --- | --- | --- | --- | --- |
|  |  |  |  |  |  |  |  |  |  |  |  |  |  |  |  |  |  |  |  | BMK10 (antibody, from another filing, V domains shown) VH: EVQLVQSGAEVKKPGASVKVSCKASGYTFTDSYMSWVRQAPGQGLEWIGDMYPDNGDSSYNQKFRERVTITRDTSTSTAYLELSSLRSEDTAVYYCVLAPRWYFSVWGQGTLVTVSS VL: DIQMTQSPSSLSASVGDRVTITCRASQDISNYLNWYQQKPGKAPKLLIYYTSRLRSGVPSRFSGSGSGTDFTLTISSLQPEDFATYYCQQGHTLPPTFGQGTKVEIK | kon [1]: 442000 M⁻¹ s⁻¹; Kd [2]: 0.23 nM; EC50 (read off the curve) [3]: 0.7 nM; EC50 (read off the curve) [4]: 0.6 nM; MFI [5]: 27600; PE + % [5]: 98.3%; MFI [6]: 28.8; PE + % [6]: 0.068%; MFI [7]: 5000; PE + % [7]: 91.6%; IC50 (read off the curve) [8]: 3 nM; IC50 (read off the curve) [9]: 6 nM; EC50 (read off the curve) [10]: 0.8 nM |
| 9160 | 80.3% | 43.2 | 0.678% | 211 | 6.75% | 61 | 1.73% | 6440 | 75.3% | 9400 | 74% | 44.1 | 0.668% | 42.7 | 0.624% | 3800 | 66.1% | 24100 | 96.6% | 1.134.9-u1-IgG1L (antibody, V domains shown) VH: QVQLQESGPGLVKPSGTLSLTCAVSGGSISSYNWWSWVRQPPGKGLEWIGEIYHGGNTNYNPSLKSRVTMSVDNSKNQFSLKLSSVTAADTAVYYCARAPGDWGGSPYFDFWGQGTLVTVSS VL: SSELTQDPAVSVALGQTVRITCQGDNLRTYYASWYQQKPGQAPILLIYGRNKRPSGIPDRFSGSSSGNTASLTITGAQAEDEAAYYCNSRDSSGNPVVFGGGTKLTVL | MFI [21]: 49.5; PE + % [21]: 0.904% |
| 6540 | 81.5% | 42.6 | 0.743% | 113 | 2.31% | 21700 | 96.5% | 5420 | 82.9% | 6260 | 70.8% | 80.1 | 0.244% | 19600 | 94.4% | 2250 | 70% | 23200 | 97.7% | 1.214.23-u1-IgG1K (antibody, V domains shown) VH: QVQLQESGPGLVKPSGTLSLTCVVSGGSISNRNWWSWVRQPPGKGLEWIGEIFHSGNTNYNPSLKSRVTISVDKSKNQFSLKVNSVTAADTAVYYCAKSFAVALDSWGQGTLVTVSS VL: DIQLTQSPSFLSASVGDRVTITCRASQDINSYLAWCQQKPGKAPKLLIYAASSLQSGVPSRFSGTGSGTEFTLTISSLQPEDFATYYCQQLFSYPITFGQGTRLEIK | MFI [21]: 23300; PE + % [21]: 92.8% |
